The source of these data is the supplement of paper PMC12764529.

± gives the half width of the 95% confidence interval.

Series [1] in a line: folding stability dG unfold from trypsin proteolysis; higher = more stable. Put shortly: (§1)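 Sequencing followed digestion of designed mini-proteins with trypsin and chymotrypsin, each at 11 concentrations in threefold dilutions together with a no-protease condition. The mini-proteins were under 80 residues, had no cysteine, sat in a PA-tagged cDNA display construct, and were kept only if AlphaFold2 dimer inter-PAE was above 15. From the counts, Bayesian fitting gave K50, and unfolding free energy was derived against a sequence-predicted unfolded-state K50 and a shared folded-state K50, per protease or combined.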

Series [2] in a line: folding stability dG unfold from chymotrypsin proteolysis; higher = more stable. The essentials:
as §1

Series [3] is described as follows: folding stability dG unfold (combined trypsin and chymotrypsin); higher = more stable. The essentials:
as §1

Take “SAGGKMKTVKVTITDKDGRKIEIVDVTVKDNKVYVVVKDKKTKKTIVLEFDTKEEAEEAIKKLLEAKSAGGS [r16_736_TrROS_Hall]”: the “folding stability dG unfold” value amounted to 0.976 ± 0.071 kcal/mol in series [1], 2.52 ± 0.066 kcal/mol in series [2] and 2.18 ± 0.34 kcal/mol in series [3].
The matching figures for “SAGGKMLVKIKIKVTIYDKNGKPVKEVELELVFPSLEDLLNALKSLSPEKIKKVEIVSIEEIDEEDLSAGGS [r16_677_TrROS_Hall]”: 3.5 ± 0.26 kcal/mol, 4.06 ± 0.32 kcal/mol and 3.73 ± 0.21 kcal/mol.
For “SAGGKMSLEDIKEVKITKISEEELKKNGTIKIEIYNKNGKLIKTIEIKIKPVKVKDKDGKEKTLEELKSAGG [r13_864_TrROS_Hall]”, the “folding stability dG unfold” value in series [1] is 0.897 ± 0.042 kcal/mol; in series [2], 1.49 ± 0.031 kcal/mol; in series [3], 1.29 ± 0.11 kcal/mol.
On to “SAGGKMVKIEITLSPEEIEKIKEKLEEETGLEVEIKVEKNENGEVKLIITFKSEEAAKKALEKLGIESAGGS [r16_172_TrROS_Hall]”, for which the “folding stability dG unfold” value in series [1] came to 2.63 ± 0.16 kcal/mol; in series [2], 3.7 ± 0.15 kcal/mol; in series [3], 3.42 ± 0.14 kcal/mol.
As for “SAGGKPGKWRKVEIWLPPDMPDIIEEIAKNWPNVNVDTERHPENGWYPVTGYFPDPNGKPVAKIHIWSAGGS [r8_267_TrROS]”, the results for the “folding stability dG unfold” value in series [1], in series [2] and in series [3] were 0.185 ± 0.064 kcal/mol, 0.933 ± 0.17 kcal/mol and 0.65 ± 0.2 kcal/mol, respectively.
Consider “SAGGKPKEIVIEVELEVVEVNGEKYLVLKAKIIDKETNEVYEVTAVFNLKTGKLVGIEVKKLTVEELKSAGG [r13_772_TrROS_Hall]”, for which the “folding stability dG unfold” value turned out to be 3.16 ± 0.25 kcal/mol in series [1], 4.9 ± 0.23 kcal/mol in series [2] and 4.66 ± 0.37 kcal/mol in series [3].
For the sequence “SAGGKPKVEIKIEEIPVDGELYLVIEIKVEEKNATLTLTLPNGEEITMEFDEETGTVRIIARIPLEDLSAGG [r13_380_TrROS_Hall]”, the “folding stability dG unfold” value in series [1] is 3.24 ± 0.29 kcal/mol; in series [2], 3.09 ± 0.15 kcal/mol; in series [3], 3.12 ± 0.22 kcal/mol.
Regarding “SAGGKPLEPKIEVEVIPLPSGERVITLRVEVPPNDPLKIKFPGLKKEVEFPGDDEVEFRVVVPPDSFSAGGS [r16_56_TrMRF]”, the “folding stability dG unfold” value in series [1] stood at 0.662 ± 0.1 kcal/mol; in series [2] it was 0.631 ± 0.1 kcal/mol; in series [3], 0.69 ± 0.14 kcal/mol.
The matching figures for “SAGGKPTQTITITLKDGRTLTIKVGQTVTITLDNGKTITVTVKDATITVKDGKVTITVNGKTYTFTVKSAGG [r13_643_TrROS_Hall]”: 3.45 ± 0.24 kcal/mol, 4.73 ± 0.13 kcal/mol and 4.62 ± 0.23 kcal/mol.
With “SAGGKPVRIRSSNGWPIEINPEDGTIKVEFPGYEVEFEVKEDGTIQFQIRNPKDGKPIMPMTLQIEKSAGGS [r16_760_TrROS]”, the “folding stability dG unfold” value in series [1] was 0.694 ± 0.049 kcal/mol; in series [2], 1.07 ± 0.093 kcal/mol; in series [3], 0.98 ± 0.072 kcal/mol.
For “SAGGKSVKVSLPKEALKKAKENEKVVITLPDGTKREAILVRGGDSVPVFVVNPDNPEEAEYVGEATVGSAGG [r13_745_TrMRF]”, the “folding stability dG unfold” value in series [1] was -0.503 ± 0.16 kcal/mol; in series [2] it was 0.134 ± 0.042 kcal/mol; in series [3] it was -0.0228 ± 0.09 kcal/mol.
As for “SAGGKTIEIEVKVPPGMTEEEVAKKLAEELAKELEKKTGKEIKIEIEKVEKLPNGERKVRIKIEVKPSAGGS [r8_156_TrROS_Hall]”, the “folding stability dG unfold” value in series [1] is 1.42 ± 0.035 kcal/mol; in series [2], 1.8 ± 0.18 kcal/mol; in series [3], 1.74 ± 0.2 kcal/mol.
The matching figures for “SAGGKTIEVEIVVPPDMTPEEVAARLAAALPPGAKIRVEEVREVTGPDGRKYRIFKVTIYDEKTGEPLSAGG [r13_12_TrROS_Hall]”: 3.61 ± 0.14 kcal/mol, 2.99 ± 0.072 kcal/mol and 3.12 ± 0.16 kcal/mol.
The corresponding values for “SAGGKTIMHMYMNPNGWFIRAKIKLDPDGKWKITDVEIYPMEMKYEDPNGKPREMPMFMIKIRIKPDSAGGS [r8_270_TrROS]” are 3.03 ± 0.084 kcal/mol, 4.26 ± 0.046 kcal/mol and 3.78 ± 0.092 kcal/mol.
The matching figures for “SAGGKTISIEFYMPPGEPPPSIEEIAKELFPGYKDIKIKNIEIEDVEPDPDNGMKYVRVSFTIEVEPPSAGG [r13_10_TrROS]”: 3.25 ± 0.27 kcal/mol, 3.42 ± 0.23 kcal/mol and 3.39 ± 0.25 kcal/mol.
Consider “SAGGKTIVIELTPEEVEELLKKLLEELKKKAEENPDAKITIVITTPDGRTYTITIDLKTGKITIEELPSAGG [r13_216_TrROS_Hall]”, for which the “folding stability dG unfold” value came to 2.39 ± 0.051 kcal/mol in series [1], 3.93 ± 0.13 kcal/mol in series [2] and 3.43 ± 0.1 kcal/mol in series [3].
For “SAGGKTIWIPMPPGDPEKFAKNIADEILEEAQKQGENVDVKITIQYPDGQYMRITIDGNGKIDKIVPWSAGG [r13_965_TrROS]”, the “folding stability dG unfold” value is 0.333 ± 0.2 kcal/mol in series [1], 0.652 ± 0.31 kcal/mol in series [2] and 0.636 ± 0.31 kcal/mol in series [3].
The matching figures for “SAGGKTKVIVVKVKPEMTVEEIAKKLAEELKKKGKKVKVEVKVIEKLPNGELYVKVTVKDGKLTIEPSAGGS [r8_7_TrROS_Hall]”: 1.12 ± 0.085 kcal/mol, 1.42 ± 0.073 kcal/mol and 1.35 ± 0.19 kcal/mol.
The matching figures for “SAGGKTVPIMFPFDSPDQIEEIIEELAKPGFDDVKPERIEPEPPPDGNYYFPVRIEVDPKNGKIEITFSAGG [r13_174_TrROS]”: 0.0445 ± 0.13 kcal/mol, 0.185 ± 0.19 kcal/mol and -0.0243 ± 0.29 kcal/mol.
The matching figures for “SAGGKTVTIKAKSLEDALKAIEALPSVDKVTITVEVNGKTVTITLTVKPPPPVKYELDKNGKLVKKEKSAGG [r13_183_TrROS_Hall]”: 0.794 ± 0.05 kcal/mol, 1.56 ± 0.086 kcal/mol and 1.28 ± 0.25 kcal/mol.
Take “SAGGKTVVIEAESLEEALAAIEALPPDVKKVVIFNKETGVLVEVTVDPKTGEIKEIKVYKIDPEKGKLSAGG [r13_945_TrROS_Hall]”: the “folding stability dG unfold” value in series [1] came to 1.22 ± 0.09 kcal/mol; in series [2], 2.861 ± 0.026 kcal/mol; in series [3] it was 2.54 ± 0.12 kcal/mol.
The corresponding values for “SAGGKTVVLEFDSVEDLKAALPPGAEVEIVVIREDGSKKTITVPAKDLKLELKPGEKYRVVIKVKPKKSAGG [r13_461_TrROS_Hall]” are 1.5 ± 0.09 kcal/mol, 2.49 ± 0.084 kcal/mol and 2.17 ± 0.12 kcal/mol.
Regarding “SAGGKTYKIKVTVEVKNENGETEKKEYVIEVKENKTPEEIAEELKKKLGVEKVEIVDPKTGKKYTIELSAGG [r13_663_TrROS_Hall]”, the “folding stability dG unfold” value stood at 1.9 ± 0.052 kcal/mol in series [1], 3.185 ± 0.029 kcal/mol in series [2] and 2.83 ± 0.084 kcal/mol in series [3].
The corresponding values for “SAGGKVSVEVRGNGPGSYVALWLPGPGTVIAREFEDGDRFDDLPEDAEPSRVVFFGYDGVPEEFELGSAGGS [r8_487_TrMRF]” are 0.32 ± 0.032 kcal/mol, 0.487 ± 0.071 kcal/mol and 0.449 ± 0.043 kcal/mol.
The matching figures for “SAGGKVVKTKEEAEKLVKEGKAEVVSVKKVKVPVNGKEKEVEVLEVKIKDKKTKKEKTIVLTKEQLKSAGGS [r16_271_TrROS_Hall]”: -0.319 ± 0.36 kcal/mol, -0.863 ± 0.27 kcal/mol and -0.894 ± 0.78 kcal/mol.
The matching figures for “SAGGKVVVLTFPKDNPEEVREALAKLPNVVRVEVEKVNDRYLAVAELEGELAVFVSLPDGRYVLLVLGSAGG [r13_907_TrMRF]”: 2.36 ± 0.091 kcal/mol, 2.994 ± 0.021 kcal/mol and 2.73 ± 0.043 kcal/mol.
Regarding “SAGGKWKPIGKFEFTLPDGVKVTVTVEENPPLELKITAEVEIYVPPPKPPVPPLGPEEVKKWLEENKSAGGS [r16_6_TrMRF]”, the “folding stability dG unfold” value stood at 1.87 ± 0.12 kcal/mol in series [1], 1.86 ± 0.05 kcal/mol in series [2] and 1.8 ± 0.2 kcal/mol in series [3].
The matching figures for “SAGGKYTFTPAPPNSESEVVKKAEELKKKLAEEPGVDKKIEIEIKPSPDGSLTIKVTFSTGTYDAAASAGGS [r16_356_JUSTAS]”: 0.514 ± 0.027 kcal/mol, 1.32 ± 0.094 kcal/mol and 0.942 ± 0.12 kcal/mol.
The matching figures for “SAGGKYVIIMFPLPPNLEVEIEYPGVPVHRTPNGSLMFQIPPNEPIRIKIKNPNGEEEELPINIFPLSAGGS [r8_72_TrROS]”: 1.77 ± 0.1 kcal/mol, 2.33 ± 0.1 kcal/mol and 2.2 ± 0.2 kcal/mol.
As for “SAGGKYVMFPFDSPEDLKDLLPPGYPVEIHMMPPKGKHRTRTFTPDEIKLELPPGENFYFMIKVKPPDSAGG [r13_461_TrROS]”, the “folding stability dG unfold” value is 1.55 ± 0.16 kcal/mol in series [1], 1.94 ± 0.33 kcal/mol in series [2] and 1.74 ± 0.2 kcal/mol in series [3].
The matching figures for “SAGGLAKAVAEELGLPELKVKEVRFAPDPAGPGLTVEVVFELPDGSYLRVEVRFHPDRIEIKAVPLPPSAGG [r19_392_TrMRF]”: 2.09 ± 0.093 kcal/mol, 3.65 ± 0.15 kcal/mol and 3.23 ± 0.15 kcal/mol.
“SAGGLEEIAEKIAEELKKKGYKAEIKEVVKPPTNEVVIKYTVTYKDKNEIIEEEEKEITFKLPPGLESAGGS [r8_102_JUSTAS]”: the “folding stability dG unfold” value in series [1] is -0.556 ± 0.16 kcal/mol; in series [2], 0.741 ± 0.14 kcal/mol; in series [3], 0.377 ± 0.16 kcal/mol.
The corresponding values for “SAGGLEEKILEAVKNMSPEEPVVEREVELPDGKLKVTVTRDGLPYTVTITRTNPDGTTTTTTTTILLSAGGS [r16_642_JUSTAS]” are 2.46 ± 0.16 kcal/mol, 2.37 ± 0.046 kcal/mol and 2.34 ± 0.12 kcal/mol.
For “SAGGLEELAKEIADDLQKRNPDMNIEVQVEVHEYKIPPGQKMRHPDGEEKEVPPGQKVYMFTIRVTPSAGGS [r16_357_TrROS]”, the “folding stability dG unfold” value in series [1] was determined as 0.758 ± 0.11 kcal/mol; in series [2] it was 1.26 ± 0.27 kcal/mol; in series [3], 1.17 ± 0.21 kcal/mol.
With “SAGGLEIDTSDGNVKVTKVSTKTTVEKDPTNPDRYRIITSKEIKTEPVKPPDVKEGPPIGLNNPELLSAGGS [r16_395_JUSTAS]”, the “folding stability dG unfold” value in series [1] amounted to 0.475 ± 0.2 kcal/mol; in series [2] it was 0.418 ± 0.47 kcal/mol; in series [3], 0.165 ± 0.49 kcal/mol.
